Laboratory results taken from patent EP4793288A1 (Imbiologics Corp., dated 2025).

Columns and labels:
[1] = target: T1, HLA-G expressed on the cell surface (human, UniProt P17693 25-338); assay: flow cytometry on JEG-3 and SCH cells naturally expressing HLA-G, anti-human IgG PE
T1 construct: whole, on cells; The cell line of each entry is named under assay or readout; also called HLA-G on JEG-3 cells; HLA-G on SCH cells

B2M = B2M (UniProt P61769 21-119); assay: ELISA
[2] = target: T1, HLA-G expressed on the cell surface; assay: cell-based or functional assay

B2M, sequence (P61769 21-119 limits assumed): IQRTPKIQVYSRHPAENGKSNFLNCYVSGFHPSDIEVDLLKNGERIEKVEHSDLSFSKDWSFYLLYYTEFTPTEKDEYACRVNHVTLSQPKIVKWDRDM

B1: 2F1HS6LS#38 (antibody, V domains shown)
VH: EVQLVESGGGLVQPGGSLRLSCAASGFTFSDYAMSWVRQAPGKGLEWVSRISQSGSYTYYADSVKGRFTISRDNSKNTLYLQMNSLRAEDTAVYYCAKEGTSSYRGWMDVWGQGTLVTVSS
VL: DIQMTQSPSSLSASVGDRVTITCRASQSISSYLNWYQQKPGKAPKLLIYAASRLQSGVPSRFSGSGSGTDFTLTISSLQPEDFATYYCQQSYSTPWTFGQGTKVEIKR
fold HLA-G binding activity against the positive control antibody [1]: ≥ 3 fold
binding result (B2M): no binding
EC50 (nM), ADCC reporter assay on SKOV-3/HLA-G cells [2]: 0.93 nM
